The target in test [1] is T1, human P-selectin-Ig chimera (human, UniProt P16109 42-771).
T1 construct: No source is stated for the chimera used on the microarray and in SPR; also called P-Sel-Ig; P-sel-Ig
Description: SPR (Biacore): biotinylated ligand on streptavidin chip, P-selectin-Ig flowed at 0.4-100 nM. For orientation: SPR reads the build-up and loss of mass on a sensor chip optically.

Test [2] has as its target T1, human P-selectin-Ig chimera. Nature of the test: SPR (Biacore): biotinylated G4 on streptavidin chip, P-sel-Ig flowed at 0.4-100 nM, 1:1 model.
Test [3] shares this target. Nature of the test: flow cytometry competition: inhibition of human P-selectin-Fc chimera (3 µg/mL) binding to human monocytes. A general note: In flow cytometry, cells or beads pass a laser one at a time.
Test [4] has the same target. Description: flow cytometry competition: inhibition of human P-selectin-Fc chimera (3 µg/mL) binding to human neutrophils.
For test [5], the target named is T2, murine P-selectin-Fc chimera (murine, UniProt Q01102 42-709).
T2 construct: Bought from R&D Systems; also called mouse P-selectin chimera; species-specific P-selectin-Fc chimera; not shown: Fc part
T2 sequence (looked up): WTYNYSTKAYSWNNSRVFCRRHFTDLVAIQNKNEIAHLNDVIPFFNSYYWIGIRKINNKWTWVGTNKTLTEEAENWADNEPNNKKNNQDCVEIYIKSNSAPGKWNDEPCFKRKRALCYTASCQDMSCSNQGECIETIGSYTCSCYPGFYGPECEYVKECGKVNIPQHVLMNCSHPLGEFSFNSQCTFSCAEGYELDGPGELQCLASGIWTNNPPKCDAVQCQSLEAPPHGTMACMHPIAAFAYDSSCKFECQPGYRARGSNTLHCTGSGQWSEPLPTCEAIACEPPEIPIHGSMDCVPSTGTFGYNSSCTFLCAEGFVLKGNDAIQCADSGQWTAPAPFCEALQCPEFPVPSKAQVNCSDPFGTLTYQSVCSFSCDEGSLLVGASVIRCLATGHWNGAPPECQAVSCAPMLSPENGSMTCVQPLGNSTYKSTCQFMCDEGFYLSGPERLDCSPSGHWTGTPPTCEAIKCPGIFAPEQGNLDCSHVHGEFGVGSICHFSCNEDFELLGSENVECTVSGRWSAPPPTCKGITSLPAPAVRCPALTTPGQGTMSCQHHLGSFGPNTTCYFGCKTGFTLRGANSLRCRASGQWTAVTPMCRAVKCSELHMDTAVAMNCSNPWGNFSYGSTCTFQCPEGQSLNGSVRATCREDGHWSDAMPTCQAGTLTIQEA
Description: flow cytometry competition: inhibition of murine P-selectin-Fc chimera (3 µg/mL) binding to murine monocytes.

Test [6] has as its target T2, murine P-selectin-Fc chimera. Description: flow cytometry competition: inhibition of murine P-selectin-Fc chimera (3 µg/mL) binding to murine neutrophils.

Drawing on US20240293553A1 (BETH ISRAEL DEACONESS MEDICAL CENTER, published 2024), this text covers Kd and IC50 for two molecules.

Square brackets hold non-standard residues; d marks the D form. Side chains are listed from the residue outwards. Ends that are not written are not given here. mPEG 40 kDa (SVA) = 40 kDa methoxy poly(ethylene glycol) succinimidyl valerate (mPEG-SVA); triazole linker = not defined here; Fs = not defined here

T1 sequence (P16109 42-771, change not shown): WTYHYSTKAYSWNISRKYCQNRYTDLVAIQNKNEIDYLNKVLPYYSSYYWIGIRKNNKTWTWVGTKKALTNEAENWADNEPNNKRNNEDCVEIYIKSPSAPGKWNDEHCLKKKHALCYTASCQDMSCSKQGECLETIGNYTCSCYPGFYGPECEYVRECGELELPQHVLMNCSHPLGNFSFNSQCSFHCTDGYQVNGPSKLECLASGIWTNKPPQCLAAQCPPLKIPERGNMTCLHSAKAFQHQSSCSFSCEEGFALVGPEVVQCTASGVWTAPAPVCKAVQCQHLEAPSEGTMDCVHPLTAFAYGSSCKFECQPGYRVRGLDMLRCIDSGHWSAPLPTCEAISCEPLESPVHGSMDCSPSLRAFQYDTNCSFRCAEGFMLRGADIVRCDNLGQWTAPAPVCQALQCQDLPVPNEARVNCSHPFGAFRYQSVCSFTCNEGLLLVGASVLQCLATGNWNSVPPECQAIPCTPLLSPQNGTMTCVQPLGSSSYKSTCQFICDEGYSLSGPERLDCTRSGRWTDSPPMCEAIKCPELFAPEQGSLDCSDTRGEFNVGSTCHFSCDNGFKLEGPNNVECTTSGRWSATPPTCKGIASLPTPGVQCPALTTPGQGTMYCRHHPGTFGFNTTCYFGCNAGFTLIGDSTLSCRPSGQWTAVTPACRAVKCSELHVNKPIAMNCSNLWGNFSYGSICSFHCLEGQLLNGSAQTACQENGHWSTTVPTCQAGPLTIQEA

B1: G4 (peptide)
peptide: KEFEFLDFDFLPETEPL
modifications: not fully specified (residues 3, 5, 8, 14); also: biotinylated for SPR, place not given here
notes: Synthetic glycosulfonopeptide analogue of the N-terminus of PSGL-1; also called compound 1
For orientation: Kd means the constant that tells how readily two partners part at equilibrium. High values mean a looser complex, low ones a tighter complex. One may read the IC50 as the concentration at which inhibition is half-maximal. As to B1, the Kd in test [1] is 0.05 µM; in test [2], 0.069 µM. In addition, the IC50 in test [3] was found to be 16 µM; in test [4] it was 13 µM; in test [5], 10 µM.

B2: PEG40-G4 (P-G4) (peptide)
peptide: {mPEG 40 kDa (SVA)}-KE[Fs]E[Fs]LD[Fs]DFLPET([triazole linker-sLe^x])EPL
modifications: reading uncertain
notes: also called PEG-G4; pegylated click compound
As to B2, the IC50 in test [3] stood at 12 µM; in test [4], 9 µM; in test [5], 6 µM; in test [6], 9 µM.
